Experimental findings from patent US20220306762A1 (CRYSTAL BIOSCIENCE, published 2022) are described below.

Test [1] addresses T1, His-tagged human CD38 (ACRO Biosystems cat #CD8-H5224) (human, UniProt P28907 43-300).
T1 construct: bought recombinant protein with His tag
Put plainly: SPR, captured scFv-Fc, His-CD38 analyte. (In general: SPR reads the build-up and loss of mass on a sensor chip optically.)

Test [2] deals with T2, His-tagged cynomolgus monkey CD38 (ACRO Biosystems cat #CD8-05223) (cynomolgus monkey, UniProt Q5VAN0 43-301).
T2 construct: bought recombinant protein with His tag
The test is described as follows: SPR, captured scFv-Fc, His-CD38 analyte.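 Note: SPR on a Carterra LSA, scFv-Fc captured by anti-human Fc on HC30M chip, His-tagged CD38 (human, mouse, cynomolgus) flowed as analyte in eight 1:2 steps from 400 nM.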

In test [3] the target is T3, human CD38 on transiently transfected Expi293 cells (Origene #SC321273) (human, UniProt P28907 1-300).
T3 construct: whole, on cells; also called Human (FACs)
Put plainly: flow cytometry, transfected Expi293 cells. (In general: In flow cytometry, cells or beads pass a laser one at a time.)

For test [4], the target named is T1, His-tagged human CD38 (ACRO Biosystems …). Put plainly: ELISA, coated His-CD38.
In test [5] the target is T2, His-tagged cynomolgus monkey CD38 (ACRO …). Put plainly: ELISA, coated His-CD38.
In test [6] the target is T4, murine CD38 on transiently transfected Expi293 cells (Origene MC208001) (murine, UniProt P56528 1-304).
T4 construct: whole, on cells; also called Murine (FACs)
T4 sequence (looked up): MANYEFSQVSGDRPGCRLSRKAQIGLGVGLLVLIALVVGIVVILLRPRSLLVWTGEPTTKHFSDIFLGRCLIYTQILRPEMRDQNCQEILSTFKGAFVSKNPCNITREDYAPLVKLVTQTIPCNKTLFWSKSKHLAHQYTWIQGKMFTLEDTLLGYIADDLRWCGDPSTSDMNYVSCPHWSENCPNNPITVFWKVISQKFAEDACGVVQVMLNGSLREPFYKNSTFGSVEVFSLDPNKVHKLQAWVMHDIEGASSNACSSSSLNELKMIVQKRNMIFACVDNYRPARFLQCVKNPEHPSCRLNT
The test is described as follows: flow cytometry, transfected Expi293 cells.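 Note: antibody binding to Expi293 cells transiently expressing human or murine CD38, antibodies applied at 10 ug/ml for 60 min on ice, read by flow cytometry as percent gated cells.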

In test [7] the target is T5, His-tagged mouse CD38 (ACRO Biosystems #CD8-M5223) (mouse, UniProt P56528 45-304).
T5 construct: bought recombinant protein with His tag; also called Murine
T5 sequence (looked up): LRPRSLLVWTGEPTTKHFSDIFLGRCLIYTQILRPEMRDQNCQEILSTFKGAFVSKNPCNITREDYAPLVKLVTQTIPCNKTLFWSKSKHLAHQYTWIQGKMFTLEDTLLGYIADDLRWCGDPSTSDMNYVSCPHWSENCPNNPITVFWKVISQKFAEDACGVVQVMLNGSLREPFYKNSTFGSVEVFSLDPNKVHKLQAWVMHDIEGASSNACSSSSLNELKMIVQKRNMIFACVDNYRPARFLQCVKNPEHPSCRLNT
The test is described as follows: ELISA, coated His-CD38. (In an ELISA, binding on a coated surface is turned into a signal by an enzyme label.)

The Kd is the equilibrium constant for the complex coming apart.

B1: 40769p1.2.E3 (scFv, V domains shown)
VH: EVQLLESGGDLVQPGGSLRLSCGASGFTFSDHYMSWVRQAPGKGLEWVADISARGSNTWYADSVKGRFTISRDNSENTLYLQMNSLRAEDTAVYYCAKNWNYNYGMDVWGQGTTVTVSS
VL: QSVLTQAPSASGTPGQRVTISCSGSSIQNNYVSWYQQLPGTAPKLLIYRNFERPSGVPDRFSASKSGTSASLAISGLQSEDEADYYCASWDDSLNWVFGGGTKLTVL
notes: tested as scFv-Fc supernatant
Take B1: the Kd worked out at 2.24 nM in test [1] and 2.11 nM in test [2]. Also, the “FACs 10 ug/ml (percent gated)” value in test [3] is 80.5%. The “ELISA 1 ug/ml” value in test [4] amounted to 1.59; in test [5], 1.7.

B2: 40769p1.2.F9 (scFv, V domains shown)
VH: EVQLLESGGDLVQPGGSLRLSCGASGFTFSDHYMSWVRQAPGKGLEWVADISARGSNTWYADSVKGRFTISRDNSENTLYLQMNSLRAEDTAVYYCAKNWNYNYGMDVWGQGTTVTVSS
VL: QSVLTQAPSASGTPGQRVTISCSGSSIQNNYVSWYQQLPGTAPKLLIYRNFERPSGVPDRFSASKSGTSASLAISGLQSGDEADYYCASWDDSLNWVFGGGTKLTVL
notes: tested as scFv-Fc supernatant
As to B2, in test [1], the dissociation constant (Kd) came to 17.1 nM. Besides, the “FACs 10 ug/ml (percent gated)” value in test [3] came out at 79.4%. Besides, the “ELISA 1 ug/ml” value in test [4] was found to be 1.47; in test [5] it was 1.56.

B3: 40769p1.2.B4 (scFv, V domains shown)
VH: EVQLLESGGDLVQPGGSLRLSCGASGFTFSDHYMSWVRQAPGKGLEWVADISARGSNTWYADSVKGRFTISRDNSENTLYLQMNSLRAEDTAVYYCAKNWNYNYGMDVWGHGTTVTVSS
VL: QSVLTQAPSASGTPGQRVTISCSGSSIQNNYVSWYQQLPGTAPKLLIYRNFERPSGVPDRFSASKSGTSASLAISGLQSEDEADYYCASWDDSLNWVFGGGTKLTVL
notes: tested as scFv-Fc supernatant
With B3, the results for the Kd in test [1] and in test [2] were 2.38 nM and 2.34 nM, respectively. In addition, in test [3], the “FACs 10 ug/ml (percent gated)” value was 81%. In addition, the entries for the “ELISA 1 ug/ml” value in test [4] and in test [5] were 1.55 and 1.73, respectively.

B4: 40769p1.1.A2 (scFv, V domains shown)
VH: EVQLLESGGGLVQPGGSLRLSCAASGFLFDDYGMSWVRQAPGKGLEWVSAISYKGGSTYYADSVKGRFTISRDNSKNTLYLQMSSLRAEDTAVYYCAKDHKWNYYGMDVWGQGTTVTVSS
VL: QSVLTQPPSASGTPGQRVTISCSGSTSNIGNDNYVSWYQQLPGTAPRLLIYKDDQRPSGVPDRFSGSKSGTSASLAISGLQSEDEADYYCGTWDDRLNAWVFGGGTKLTVL
notes: tested as scFv-Fc supernatant
For the molecule B4, the equilibrium dissociation constant (Kd) in test [1] is 0.319 nM; in test [2] it was 0.35 nM. Also, the “FACs 10 ug/ml (percent gated)” value in test [6] was 2.65%; in test [3], 78.5%. The “ELISA 1 ug/ml” value in test [7] was 0.049; in test [4], 1.61; in test [5] it was 1.73.

B5: 40769p1.1.G5 (scFv, V domains shown)
VH: EVQLLESGGGFVQPGGSLRLSCAASGFNFNNAWMNWVRQAPGKGLEWVGIINGDGTNTYYADSVKGRFTISRDNSKNTLYLQMSSLRAEDTAIYYCARDNKLNDYYYAMDVWGQGTTVTV
VL: QSVLTQPSSASGTPGQRVTISCSGGSSNIHANYVYWYQQLPGTAPKLLIYRNSQRPSGVPDRFSGSKSGTSASLAISGLQSEDEADYYCGTWDNILNVWVFGGGTKLTVL
notes: tested as scFv-Fc supernatant
Consider B5, for which the dissociation constant Kd amounted to 3.11 nM in test [1] and 11.5 nM in test [2]. The “FACs 10 ug/ml (percent gated)” value in test [3] worked out at 84.4%. The “ELISA 1 ug/ml” value is 1.72 in test [4] and 2.01 in test [5].

B6: 40769p1.1.B8 (scFv, V domains shown)
VH: EVQLLESGGGLVQPGGSLRLSCAASGFTFEDYAMSWVRQAPGKGLEWVSVISSKGGSTSNADSVKGRFTISRDNSKNTLYLQMNSLRAEDTAVYYCAKGMERQYYSYNAMDVWGQGTTVTVSS
VL: QSVLTQPPSASGTPGQRVTISCSGSNSNIDVDYVYWYQQLPGTAPRLLIYKDDQRPSGVPDRFSGSKSGTSASLAISGLQSEDEADYYCATWDDNLNSWLFGGGTKLTVL
notes: tested as scFv-Fc supernatant
For the molecule B6, the figures for the Kd in test [1] and in test [2] were 0.101 nM and 1.62 nM, respectively. For the same molecule, the “FACs 10 ug/ml (percent gated)” value in test [6] came out at 0.04%; in test [3], 81.4%. Besides, the results for the “ELISA 1 ug/ml” value in test [7], in test [4] and in test [5] were 0.048, 1.64 and 1.75, respectively.

B7: 40769p1.1.E2 (scFv, V domains shown)
VH: EVLLLESGGGLVQPGGSLRLSCAASGFTFSDYWMSWVRQAPGKGLEWVSTISISAGIIYYADSVKGRFTISRDNSKNTLYLQMNSLRAEDTAVYYCAKDNWNDYYGMDVWGQGTTVTVSS
VL: QSVLTQPPSASGTPGQRVTMSCSGNNQNIRDNYVYWYQQVPGTAPKLLIYKDDQRPSGVPDRFSGSKSGTSASLAISGLQSEDEADYYCATWDGSLKARVFGGGTKLTVL
notes: tested as scFv-Fc supernatant
Turning to B7, the Kd in test [1] is 3.23 nM; in test [2], 4.4 nM. Moreover, the “FACs 10 ug/ml (percent gated)” value in test [3] is 82%. Also, the figures for the “ELISA 1 ug/ml” value in test [4] and in test [5] were 1.65 and 1.98, respectively.

B8: 40769p1.1.G10 (scFv, V domains shown)
VH: EVQLLESGGGLVQPGGSLRLSCAASGFTFSDYWMNWVRQAPGKGLEWVSTISSGGSMIYHADSVKGRFTISRDNSKNTLYLQMNSLRPEDTAVYYCAKDNWNDYYGMDVWGQGTTVTVSS
VL: QSVLTQPPSASGTPGQRVNISCSGSSSNIRYNYVYWYQQVPGTAPKLLIYKDDQRPSGVPDRFSGSESGTSASLAISGLQSEDEADYYCATWDGSLNARVFGGGTKLTVL
notes: tested as scFv-Fc supernatant
For B8, the Kd in test [1] was found to be 78.9 nM; in test [2] it was 154 nM. The “FACs 10 ug/ml (percent gated)” value in test [3] was found to be 77.5%. In addition, the “ELISA 1 ug/ml” value in test [4] was 1.75; in test [5], 2.11.

B9: 40769p1.1.H3 (scFv, V domains shown)
VH: EVQLLESGGGLVQPGGSLRLSCAASGFAFNDYLMSWVRQAPGKGLEWVSTISWSGGSTYYADSVKGRFTISRDNSKNTLYLQMNSLRAEDTALYYCARDRYRYNYYYFMDVWGQGTTVTV
VL: QSVLTQPPSASGTPGQRVTISCSGSTSDSPYDRIDWYQQLPGTAPKLLIYKDDQRPSGVPDRFSGSKSGTSASLAISGLQSEDEADYYCATWDAMLSAWVFGGGTKLTVL
Take B9: the “FACs 10 ug/ml (percent gated)” value in test [6] worked out at 3.84%; in test [3], 82.5%. Moreover, in test [7], the “ELISA 1 ug/ml” value turned out to be 0.049.

B10: 40769p1.1.B10 (scFv, V domains shown)
VH: EVQLLESGGGLVQPGGSLRLSCTASGITFSRFNMFWVRQAPGKGLEFVASIRDDGSWTYYADSVKGRFTISRDNSKNTLYLQMNSLRAEDTAVYYCAKDYNSKDFIYHYVMDVWGQGTTVTVSS
VL: QSVLTQPPSASGTPGQRVTISCSGRNSNIGNNVVNWYQQLPGTAPKLLIYRNQERPSGVPDRFSGSKSGTSASLAISGLQSEDEADYYCSTWDDSLNGWVFGGGTKLTVL
notes: tested as scFv-Fc supernatant
For B10, the equilibrium dissociation constant (Kd) in test [1] turned out to be 8.02 nM; in test [2], 96400 nM. Further, the “FACs 10 ug/ml (percent gated)” value in test [6] is 0.38%; in test [3] it was 76.4%. The results for the “ELISA 1 ug/ml” value in test [7], in test [4] and in test [5] were 0.049, 1.5 and 2.05, respectively.

B11: 40596p1.E4 (scFv, V domains shown)
VH: EVQLLESGGGLVQPGGSLRLSCAASGFDFSGSAMSWVRQAPGKGLEYVAGLGWSGSFIYYADSVKGRSTISRDNSKNTLYLQLNSLRAEDTAVYYCARNPGFGEMDVWGQGTTVTVSS
VL: EIVLTQSPGSLSLSPGERATLSCRASQTVGSNLAWYQQKPGQAPRLLIYGASTRATDIPDRFSGSGSGTEFTLTISSLQSEDFAVYYCQQYNSWPPLTFGGGTKVEIK
notes: tested as scFv-Fc supernatant
Regarding B11, the dissociation constant Kd in test [1] was determined as 56.9 nM; in test [2], 17.8 nM. In addition, the “FACs 10 ug/ml (percent gated)” value in test [6] was 34%; in test [3], 64.2%. The figures for the “ELISA 1 ug/ml” value in test [7], in test [4] and in test [5] were 1.72, 1.93 and 1.77, respectively.
